According to the DeepSol protein solubility set:

Experiment: soluble on expression in E. coli; label from the status in PepcDB or PDB records

Which “soluble on expression in E. coli” value does the source give for “MSLQTWIWYPGDYEIWLGNRMNNRRTERGAFFPPFWKTDSHYVVVEFSKKLDLAEPEEIFIAAEGKYNVKLDGKLQFGMPSTLKLPAGKHSLNIKVWNQSTPPTIYVKGKTVNTDKTWKVTYEDKEWIDESGKASDTSATVYMDAGCWNFDGATQLPSKFSLARKPMKAVSSTPRKEGVLYDFGKETFGYITLKEVKGKGTIHIYYGESPEEALDTEYCETLDKLLAEPGQITDLAIRNTRKLYDEYTLDNSKAFRYVYVTCDPGVTIQDVSMQYEYLPEEYRGSFKCNDEELNRIWEVGAYTMHLTTREFFIDGIKRDRWVWSGDAIQSYLMNYYLFFDNETVKRTIWLLRGKDPVTSHSNTIMDYTFYWFLSIYDYYMYSGDKDFVTQLYPRMQSMMDYVLGRTNANGMVEGMTGDWVFVDWADGYLDKKGELSFEQVLFCKSLETMALCAGLAGNTADKTKYEKLASALRSKLEPAFWNEQKQAMVHNRVQGKQSESVTRYANMFSVFFNYLNADKQQTIKHSVLQNDSILKITTPYMRFYELEALCALGEQESVMKEMKAYWGGMLKEGATSFWEKYNPEETGTRHLAMYGRPYGKSLCHAWGASPIYLLGKYYLGVKPTKPGYEEYSVTPCLGGLKWMEGTVPTPYGNIHIYMDKKEIRIKSDGGKGVLNIPTRKGMKAMTIEPGEEQVFKYEGHHHHHH” here?
The value was “soluble”.

Which “soluble on expression in E. coli” value does the source give for “MSLQVEGLSINLATIREQCGFAEAVDVCLKHGITAIAPWRDQVAAIGLEEASRIVRSNGLKLTGLCRGGFFPAPDAAGREKAIDDNKRAVDEAAELGADCLVLVVGGLPGGSKNIDAARSMVLEGIAAVLPHARAAGVPLAIEPLHPMYAADRACVNTLGQALDICEALGPGVGAAIDVYHVWWDPDLNEQIARAGRMKAILAHHICDWLVPTKDMLTDRGMMGDGVIDLKAIRREVEAAGFHGAQEVEIFSADNWWKRPAEEVIATCVERYRSCCRDDEGHHHHHH” here?
Its value is “soluble”.

For “MSLQVTDVEIAQYYQDNKAQFMTQHLAHIQFANEQDAKVAYEELQKGANFADVAKAKSLDKISGENGGDLGWVNENELPKAFEDAAAALQVGQYSQPINVDGNYHIVLVQERKAQSLENVKAQIADLVRKSLMESRYFSLEKQASDKAFEDSKSLNTAAQAAGVKVQESDYFSRQNVPAGLNFPNVIYTIFESDTTNVGMNSEPINVGDYHTIIVRVLDRKAEGVKSLEEAKIDIETFLKRQKAENALNGKAQQAVKKLSENPESKVDGINFSSEQTFTLSENKDPILTNGIFSIAKPESSKALYQVVHNSNGDVVVVALNKVEQGSLSEKELSQFAMQLLRSHQSELQVQLIQGLRERAKIEVNDSFINQDDEAQEGHHHHHH”, which “soluble on expression in E. coli” value is on record?
Its value is “soluble”.

Which “soluble on expression in E. coli” value does the source give for “MSLQVWTKLFAKSPFKPLIKHAEVVVETVETLEKALEAWAKGDYEKMKELAVEVDRLEDVADRIKMELRESITAKLLMPVQRSDVLEYLHMQDKIADAAEDTAKWLLVRDRGNVPEDIKDIILKMGKESIRAAKLVYEAIKQMDMVVESGFSENEIKKEYDLIRQIEEVENKIDGLDTKLMRLVLNANISWTEGIYLLNIGRTISNISDKAKDAAERIRIMMSKEGHHHHHH” here?
The value was “soluble”.

Which “soluble on expression in E. coli” value does the source give for “MSLRGIRMKDYDLIVIGTGSGMNYVNSIIDSNPKMKIAVIDKDEPGGICLTRGCIPSKLLLYPAELVRDLETAPLFGIKLEIKDIEFRTIMERMRKRIGEDIEMIRQGLTENDYLDYYPETAEFISPYTLKAGDEILHSEMIFLCTGSKPAVPPVRGLEEAGYLTSDTVLGLNECPKSLAILGGSYIGAEYGHFFSAMGAEVTVIGRNQHFLPQEEPEVSELARIKMSEYMRILTNHEAIEVRKEKGGQKTVIAKDRDSGEETEVTADEILVATGRAPNNDILHPEKAGIKTDPHGWILVNEYLETSQPNIWAFGDANGKYLLKHVGNYESGIVYLNAIMQEKVKVDYHAVPHAVFSYPEIAGVGMSEKEAIEEFGEKRVIIGFKLFEDTAKGSAMETRDYFVKVILDGLEDKILGAHIIGPHASVLIHQIIPLMYTASRSAKPMMQMMDIHPALSEVVKRAFYSRLSPEHYHHVMKHLGLEDEDSVEGHHHHHH” here?
The value was “soluble”.

For “MSLRGQVHSVFVVVPRFNLTTLITMIETMRIGNYLSSERLFSWEVTSFDGLNLGASNGVRVHLDVEPDQTAPADQVFVLASWGGEHYQNKALASWLRKRARQGERICAVELGCYLVARAGLMDGKEATTHWSWINGFQEKFDQISVVEQLFTIDGRILTCAGGMAGVDLMLRLIEQSHGAGFSGEIADQMLHNPIRKGSSSQRRTMGRGTESILPLVRQAMTLIERNIEEPLTVPQIAAALDVSQRQLERQFKKHVGCTVVQFGLLRRLQNARVLLIATELSVREIATASGFNTLSHFSYSFSKFFGRRPSDYREAWPSNEAAPTWPGTLSDFLHAINSGDKREGHHHHHH”, which “soluble on expression in E. coli” value is on record?
The value was “not soluble”.

Which “soluble on expression in E. coli” value does the source give for “MSLRIALAGAGAFGEKHLDGLKNIDGVEITSIISRTGEQAAAVAAKYGAKHSSTELEDALARDDVDAVILCTPTQMHASQAIACMKAGKHVQVEIPLADSWADSQEVLRVQQETGKVCMVGHTRRFNPSHQFVHNRIKAGEFNVQQMDVQTYFFRRKNINAKGEPRSWTDHLLWHHAAHTVDLFAYQAGRIVKANAVEGPIHPELGIAMDMSIQLKSETGAICTLSLSFNNDGPLGTFFRYIGDTATYIARYDDLVNGKEEPIDVSKVDVSMNGIELQDREFVAAIREGREPNSSVQKVFDCYRVLGELEQQLAKGEGHHHHHH” here?
Its value is “soluble”.

Which “soluble on expression in E. coli” value does the source give for “MSLRIAVDAMGGDHAPKAVIDGVIKGIEAFDDLHITLVGDKTTIESHLTTTSDRITVLHADEVIEPTDEPVRAVRRKKNSSMVLMAQEVAENRADACISAGNTGALMTAGLFIVGRIKGIDRPALAPTLPTVSGDGFLLLDVGANVDAKPEHLVQYAIMGSVYSQQVRGVTSPRVGLLNVGTEDKKGNELTKQTFQILKETANINFIGNVEARDLLDDVADVVVTDGFTGNVTLKTLEGSALSIFKMMRDVMTSTLTSKLAAAVLKPKLKEMKMKMEYSNYGGASLFGLKAPVIKAHGSSDSNAVFRAIRQAREMVSQNVAALIQEEVKEEKTDEEGGSHHHHHH” here?
Its value is “soluble”.

With “MSLRIEEIRRYHESLMVELDRIYRIAEAARKKGLDPELSVEIPIAKNMAERVEKLMNLQGLAKRIMELEEGGLSRELICFKVADEIVEGKFGEMPKEEAIDKAVRTAVAIMTEGVVAAPIEGIARVRIDRENFLRVYYAGPIRSAGGTAQVISVLVADYVRRKAEIGRYVPTEEEILRYCEEIPLYKKVANLQYLPSDEEIRLIVSNCPICIDGEPTESAEVSGYRNLPRVETNRVRGGMALVIAEGIALKAPKLKKMVDEVGIEGWEWLDALIKGEGHHHHHH” as the sequence, how does the “soluble on expression in E. coli” value read?
The value was “soluble”.

For “MSLRIVIAGAGEVGYHLAMSLAPNHDVIIIEKDVSRFERVSELDVVAINGNAANMKVLRDAGVERADVFLAVTGNDEVNLLSGLAAKKVGAKNVIVRVENPEYVDRPIVKEHPLGYDVLICPQLSLAQEAARLIGIPGAIEVVTFSGGKVEMIELQVMEGSKADGKAIADLYLPQNVVIASIYRNGHIEIPRGDTVLRAGDRVAIVSKTEDVEMLKGIFGPPVTRRVTIFGAGTIGSYTAKILAKGMTSVKLIESSMERCEALSGELEGVRIVCGDATDIEFLIEEEIGKSDAVLAATESDEKNLLISLLSKNLGARIAIAKVEKREYVKLFEAVGVDVALNPRSVTYNEVSKLLRTMRIETLAEIEGTAVVEVVVRNTRLVGKALKDLPLPKDAIIGAIVRGNECLIPRGDTTIEYEDRLLVFAKWDEIEKIEEIFREGHHHHHH”, which “soluble on expression in E. coli” value is on record?
The value was “soluble”.

Which “soluble on expression in E. coli” value does the source give for “MSLRKEPSSQLELFLNILHGFSTTITSETLNKISEKFLDMVNGSINPSLSLKNKITIVFQDCLTNGFQSANLSKLLENLNSIDVVEVLSEFIHCDLKVGAFSVIDLLDTDIFLSVLSMESLKQTLSIMDKFIIDILLVFTIVDINYEVFAEKLSKLITLHFNISLWLQVYQIDKLLAISETFGHVTKYNYGAQLKSYSDITDFTTLMVGFVKNSPTAEPPIFTRAFSDFILNGEDLTCAKQFLHFVAKPYHVSKDPVEELLYALSLFKCNEYDASIEIFLANDFSDELSLPKYLEVTENHVWYNLLHAINTKDKPAYYYELSVLCSKASSYANALKTIKKSISLDGTRADQLIQYLDTLIVFGDYKEVLDVLRLEQKVLDISLREKYYYTLLSDQKYSEMFTATLLQECYNANISNGSILLCVSDYKIIASILSSQVSLTDWNSYKKLFSFRILNQHERKACEELYDYVLFGSNDEVKEKCLLLISNVLKTFSDAKDQWFISYPGQIIHLHELNDKMNKCSKEGHHHHHH” here?
Its value is “not soluble”.

Which “soluble on expression in E. coli” value does the source give for “MSLRKLGPVTIDPRRHDAVLFDTTLDATQELVRQLQEVGVGTGVFGSGLDVPIVAAGRLAVRPGRCVVVSAHSAGVTAARESGFALIIGVDRTGCRDALRRDGADTVVTDLSEVSVRTGDRRMSQLPDALQALGLADGLVARQPAVFFDFDGTLSDIVEDPDAAWLAPGALEALQKLAARCPIAVLSGRDLADVTQRVGLPGIWYAGSHGFELTAPDGTHHQNDAAAAAIPVLKQAAAELRQQLGPFPGVVVEHKRFGVAVHYRNAARDRVGEVAAAVRTAEQRHALRVTTGREVIELRPDVDWDKGKTLLWVLDHLPHSGSAPLVPIYLGDDITDEDAFDVVGPHGVPIVVRHTDDGDRATAALFALDSPARVAEFTDRLARQLREAPEGHHHHHH” here?
Its value is “soluble”.

Which “soluble on expression in E. coli” value does the source give for “MSLRKRLTQLFPFLLPVRRIQRKLCFYTKMYLDRNHYAKAKAPEFLPFCIYETKSKLLNENTGMDIKYQENKVFNLRLAAEPVNGLLIRPGETFSFWQRVRYAEKNERYKDGLCVVNDELVTVPGGGLCHLSNLLFWLFLHTPLTIVERHAHEIKDFPSPDEDEPDGVDATIHEGWLDLKVKNDTNLTFQIELSIDGPYIYGRIFMDQAKGYSYEVVNRDKRFLQKEGKIFERVSVCRQVIDNKSKQVISENMLYTDVFEIGYPLPEGTAIAEEGHHHHHH” here?
Its value is “soluble”.

Which “soluble on expression in E. coli” value does the source give for “MSLRLKIGSPVFFKQVRPGLHGKPFTLYKFRTMTDERDSKGNLLPDEVRLTKTGRLIRKLSIDELPQLLNVLKGDLSLVGPRPLLMDYLPLYTEKQARRHEVKPGITGWAQINGRNAISWEKKFELDVWYVDNWSFFLDLKILCLTVRKVLVSEGIQQTNHVTAERFTGSGDVSSEGHHHHHH” here?
Its value is “not soluble”.

Which “soluble on expression in E. coli” value does the source give for “MSLRLRTLKDLDQAALLLARACALLLDDNTDVPDLRQVIFKCVPKNRLAESVSKVNELARPQNNNFHDEMVEQYGRVKRFLPAVLRDLHFRAAPAGEHVLAAIHYLAELNGSKKRILDDAPEHIITGPWKRLVYDAEGRIQRAGYSLCLLERLQDALRRRDIWLENSDRWGDPREKLLQGEEWQTQRIPVCRALGHPVDGRKGVQQLAIQLDETWKAVASRFEKNAEVHICNEGKYPSLTISCLEKQEEPPSLLRLNNRIKQLLPPVDLTELLLEIDAQTGFTHEFAHVSESGARAQDLHISLCAVLMAEACNIGLEPLIKHNIPALTRHRLSWVKQNYLRAETLVSANARLVDFQSTLELAGRWGGGEVASADGMRFVTPVKTINSGSNRKYFGSGRGITWYNFVSDQYSGFHGIVVPGTLRDSIFVLEGLLEQQTGLNPVEIMTDTAGSSDIIFGLFWLLGYQFSPRLADAGEAVFWRVNKSANYGVLDKLARGYADLSKAESQWDEMMRTAGSLKLGTIHASELIRSLLKSSRPSGLAQAIMEVGRVNKTLYLLNYIDDEDYRRRILTQLNRGEGRHAVARAICYGQRGEIRKRYREGQEDQLGALGLVTNAVVLWNTLYMEEALSWMRRNGEEIIDEDIARLSPLMHGHINMLGHYTFTLPEDILKGELRALNEGHHHHHH” here?
Its value is “not soluble”.

Which “soluble on expression in E. coli” value does the source give for “MSLRNPIRIFIVDDHEIVRQGLKVIINQEQDFELVGESNGQKGLLKEIAEAHPDVLLLDIRISGSDGFDIASQLNEKFPSIKILIISGYESELYLVEALDHKVSGFIPKGSSRDYVCSAIRMVALGGTVWHGELLYRVIRGLSRLGNEPNDTKVQIGKSHLKPRELKVLSLLAKGKLNKEICFELQISMDTVKKDIHQLKSKYGVFNRTQLATIATEMQLKEGHHHHHH” here?
Its value is “not soluble”.
